Measurements from patent publication US20220256794A1, “TERPENE SYNTHASES AND TRANSPORTERS” (The State of Israel, Ministry of Agriculture & Rural …, priority 2019, published 2022).

Tests used:
yeast cells [1] = test: Uptake of CBD into yeast cells; assay type: cell-based, Saccharomyces cerevisiae (strain Y1HGold); settings: 0.5 mM CBD, three hour incubation, FIG. 3A and FIG. 4
Method: (§1) The genes were expressed in yeast and tobacco. For yeast, the ABC and PTR Transporter genes were synthesized by the TWIST Co, cloned and expressed (individually) in the yeast expression vector pESC-URA (Agilent Technologies) for expression under the yeast native gal-10 promoter. Competent Saccharomyces cerevisiae (strain Y1HGold, CloneTech) cells were prepared, transformed by each of the resulting vector and selected on yeast synthetic media lacking Uracil as previously described [GietzR. D., Methods Mol. Biol. (2014) 1205:1-12].
An additional strategy for determining transporter function is to measure the amount of exogenous CBD taken up and incorporated into the cells.
Transformed yeast cells were grown on URA-glucose broth at 30° C. at 200 RPM, and after 24 hours 100 μl was used to inoculate 5 ml of URA-galactose broth in the same conditions till OD600 of […]. The yeast was incubated with 0.5 mM CBD for 2-8 hours in 30° C. at 100 RPM, then centrifuged at 15000 g for 1 minute, and washed twice with 1 ml distilled water. The pellet was weighed and underwent HPLC analysis to determine the pellet's CBD content. The pellet was extracted in 1 ml methanol, and following centrifugation and filter was analyzed by HPLC using a diode-array detector and CBD was quantified against a commercial standard.

yeast cells [2] = test: Yeast growth (turbidity A600) in the presence of CBD; assay type: cell-based, Saccharomyces cerevisiae (strain Y1HGold); settings: 0.5 mM CBD, 7-12 hours, FIG. 2
Method: as §1
An alternative method is to measure the yeast growth as a function of turbidity. Transformed yeast cells were grown on URA-glucose broth at 30° C. at 200 RPM, and after 24 hours 100 μl was used to inoculate 5 ml of URA-galactose broth in the same conditions till O.D.600 of 1.5. The yeast was further diluted to OD600=0.05 with 10 ml URA-galactose, and divided into two 5 ml aliquots into separate 50 ml falcon tubes. The first falcon (control) was added 78 μl acetonitrile (the solvent that the CBD was dissolved in), and the second one was added 78 μl CBD solution in acetonitrile (final CBD concentration=0.5 mM). […]

[3] = Terpene synthase activity assay with GPP; assay type: biochemical; settings: TPS expressed in E. coli; 10 μM GPP, overnight at 30° C., SPME GC-MS
Method: Putative terpene synthase genes were synthesized by the TWIST Co., and cloned into Novagen pET-28a(+) with a 6×His tag at its' N-terminus. The recombinant plasmid was then sequenced for authentication and transformed into BL21(DE3) pLysS and pLysE strains of E. coli (Agilent Technologies) for heterologous expression. An overnight culture was used to inoculate a 20-200 mL culture, induced with 0.1 mM IPTG at an OD 600 nm >0,8 for initiation of recombinant protein translation then incubated at 18° C. and 250 RPM overnight. The cells were collected by centrifugation and the recombinant enzymes were extracted either as a crude extract or purified on a Ni-NTA agarose resin as previously described [Gonda I. et al., The Plant Journal (2013) 61, 458-472].
To determine the terpene synthase catalytic activity, reaction mixtures containing 100 μl of protein extract or purified protein were incubated overnight at 30° C. with either 10 μM geranyl diphosphate (GPP) or farnesyl diphosphate (FPP), in a final volume of 200 μl using a buffer containing 50 mM bis-tris, pH 6.9, 1 mM DTT, 10% (v/v) glycerol, 0.1 mM of MnCl2 and 10 mM of MgCl2. The volatiles produced were extracted by solid-phase microextraction (SPME) according to the methodology previously described [Iijima Y. et al., Plant Physiol (2004) 136: 3724-3736]. As controls, reactions were carried out without the cofactors MnCl2 and MgCl2, or protein extracts were heat inactivated by incubation at 100° C. for 5 minutes, or a short peptide product of an empty pET100 vector was utilized.
For solid-phase microextraction (SPME) analysis, a 57298-U SPME fiber assembly Divinylbenzene/Carboxen/Polydimethylsiloxane (DVB/CAR/PDMS, Supelco) needle size 23 ga, StableFlex, was used with an autosampler and analyzed by GC-MS as previously described [Davidovich-Rikanati R. et al., Nature Biotech (2007) 25:899-901; Davidovich-Rikanati R. et al., Plant J (2008) 56:228-238]. The SPME fiber were adsorbed for 30 min. by automatic HS-SPME at 50° C. followed by injection of the fiber into a GC-MS injection port for 5 min. (splitless), for desorption of the volatiles. Chiral separation was conducted on a Restek Rt™-bDEXsm column (30 m length 0.25 mm i.d., 0.25 μm film thickness, 2,3-di-O-methyl-6-O-tert-butyl dimethylsilyl beta cyclodextrin added into 14% cyanopropylphenyl/86% dimethyl polysiloxane). Helium (0.8 ml min-1) was used as a carrier gas with splitless injection. The injector temperature was 250° C., and the detector temperature was 230° C. The following conditions were used: initial temperature 40° C. for 5 min., followed by a ramp of 2° C./min. to 110° C., and 10° C./min up to 230° C. (5 min.). A quadrupole mass detector with electron ionization at 70 eV was used to acquire the MS data in the range of 41 to 350 m/z. The identification of the volatiles was assigned by comparison spectral data with the W10N11 and HPCH2205 GC-MS libraries and with authentic standard when available.

B1: T-AG2575-1: Cannabis ABC-G transporter gene product, amino acid SEQ ID NO: 55 (protein)
chain: MEVGDLYKAGNSLRSSKGSSVWRGNNNNNNNKDEFFSKSRREDDIDDEEALTWAALEKLPTYDRLRKGILTTSKGKPTEVDVINLGSKERKDLLRRLVNVADEDNESFLLKLKQRIQTVGIELPTIEVRYENIKVEADVHVGSRALPSFINFCVNILEMLVSFLPILKSKKKHVTILDDVSGAIKPGRLTLLLGPPNSGKTTLLLTLAGKLASELKFSGRVTYNGHEMNEFIPQRTAAYISQHDVHIGEMTVRETLSFSARCQGVGTRYDMLAELSRREKEANITPDPDIDVFMKAASAEGQESSVITDYIIKILGLEGCADTMVGNEMLRGISGGQKKRVTTGEMLVGPAGALFMDEISTGLDSSTTFQIVNSLKQFAHIFEETIVISLLQPAPETYDLFDDIILLSDGQIVYQGPRENVLEFFELTGFKCPERKAIADFLQEVTSRKDQAQYWARSDQPYKFVTVNEFVEAFQSFHIGKKVVEHLSIPFDKTKSHPAALTTKPYGLNKMELLKACMSREFLLMKRNSFVHIFKIVQLGILGLISATIFLRTKMHHKTLQDGSIYLGALFFSTLMIMFNGLSEVPMTIVKLPVFYKQRDLQFFPAWAYALPSMIYKAPVAFIEVLVWMTITYYSIGFDPYFGRVVKLYVLFVIINQMASGLFRAIASIGRSMIIANTFGAFSLLLLFVLGGFVLSRDFIKGWWIWGYWISPLMYGQTGVVVNEFNGNKWKHVPPNSTETLGVQVLKARGFFTDSYWYWLGFAALSAYVVIFNFVYTLALTYLNPLEQRQAVSNENSESGDIQNDEEGEVIEMTQRPKNMGENQSKKKGMILPFEPHSICFDDVCYSVDMPQEMKGQGVVEDKLVLLKSVSGSFRPGVLTALMGVSGAGKTTLMDVLAGRKTGGYIEGDIRISGYPKKQETFARISGYCEQNDIHSPYVTVYESLLYSAWLRLPSEVDMDTRKMFIEEVMELVELVPLRQALVGLPGVNGLSTEQRKRLTIAVELVANPSIIFMDEPTSGLDARAAAIVMRTVRNTVDTGRTVVCTIHQPSIDIFEAFDELFLLKIGGEEIYVGPLGRHSCHLINYFEAIEGVSKIKEGYNPGTWMLEVSSSAQEMALGVDFANIYKNSDLYKRNKELIKELSTPAPGSKDLYFPTQFSRSLYTQCIACLWKQRQSYWRNPLYTAVRFMFTTFIALMFGTMFWDLGSKRSNKQDLTNALGSMYSAVLFIGVQNSSSVQPVVGVERTVFYREKAAGMFSAFPYTFGQVVVEIPYIICQAVVYCLIVYAMMGFEWTAVKFFWYLFFTFFSMLYFTFYGMMAVGITPNNHVASIISAAFYSIWNLFSGFIVPRTRIPIWWRWYYWGCPTAWTLYGLLVSQYGDVEDVMDAETGETVKQYLKSYFGYKHDFIGVVAMVNVFYGLLFGGIFALSIKVLNFQNR
modifications: ABC+PTR Transporter amino acid sequence (of the 12 identified gene products)
With B1 the “net uptake of CBD into yeast cells compared to control (empty vector) yeast” value (yeast cells [1]) was “reduced net uptake of CBD” and the “inhibition of yeast growth in response to CBD, transporter-expressing yeast vs control yeast” value (yeast cells [2]) was “reduced inhibition of growth”.

B2: 799-4: Cannabis terpene synthase gene product, amino acid SEQ ID NO: 33 (protein)
chain: MSNIQVLASSQLSDKIIARPTTNFHPSIWGDRFLHYNISEQDLVCKEERIEELIQVVKKEILSSNHDQLKLIDNLQRLGLSHHFESEIEKLLEHLSTTHHQNHHDLHDASLCFRLLRQHGFNVSSSIFEKFKDEKGNFKGSLITDVPGLLSLYEASHLSYVGESILDEALAFTTTHLKAIVANSKDHPLSHQISIALHRPLRKTIERLHARFYISIYEKDASHNKVLLELAKLDFNLLQCFHKKELSEIMRWWKEHEFAKKFPFARDRMVEQYFWILGVYYEPKYSRARKLLTKVIALASITDDIYDAYGTIDELELLTKAMQRWDITCMDKLEPEYLKTYYKAMLDSYEEFEKELKKEELYKLEYAKEEMKRIIGAYFEEARWLSEGYFPSLDEHLKVSYVSCGYVLLIATSYVGMYDIVTHETLNWLSKDPKIVSASTLLARFMDDIGSRKFEQKRNHIPSTVDCYMKQYEVSEEEAIKELNKRVDTHWKEINEDFIRPTVVPFPILVRVLNFTKTVDLLYKEGDDQYTNVGKVLKESIAALLIDSIPL
modifications: Terpene Synthase Gene Amino acid sequence of the 45 identified gene products
In the case of B2, the “Monoterpenes produced with GPP” value [3] is reported as “myrcene”.

B3: AG3403-2: Cannabis terpene synthase gene product, amino acid SEQ ID NO: 40 (protein)
chain: MHCITLKHQISPLLPNICSTTNFGVFFRPKLYTNYNIINNATKSRLSSACYPIQCAVVNSSNAIIDRRSANFEPSIWSFDYIQSLTSQYKGEPYTSRVKKLERDVKKILVEMENSLAQLELIDTLQRLGISYRFENEINSILNKKYVNINNPNYNLYAIALQFRLLRQHGYAVPQEIFNQLKDEIENIKKNINGNDIMGILALYEASFYEKKGESILKEARIFTTKCLKNYTIMISEQKKLLIDNDYDYDIEVVNHALELPLHRRTTRTEAKWFIDAYAKKQDMNPMLLELAKLNFNTVQSTHHEDLKHIFRWWRHTKLGEKLNFARDRLMECFLWNIGIRFESKFSYFRTKTAKLFELVTFIDDIYDVYGTLDELELFTKAVERWDVKMINELPEYMKMPYLVLHNTINDMVFEVLRDQEISINIQYLKKTWVDMCKSFLQEAKWYYSGYTPTLEEYIENGWISVGAPVILVHAYFFHANNNRTITNTKEIFECLEHGYYPAIIRHSAIILRFTNDLTTSSEELKRGDAPTSIQCYMQEKNVSEEEAREHIKFLINEAWKEMNNDVGLYPISLTEDATNFAKMGFFIYQHGDGHSSQDNQSKQKISSLIIEPIPLYT
modifications: Terpene Synthase Gene Amino acid sequence of the 45 identified gene products
With B3 the “Monoterpenes produced with GPP” value [3] was “beta-myrcene and geraniol”.
